PMC3823801, “Structure Reveals Regulatory Mechanisms of a MaoC-Like Hydratase from Phytophthora capsici Involved in Biosynthesis of Polyhydroxyalkanoates (PHAs)” (PLoS ONE, 2013)

Biological target: the molecule itself
Assay: SEC; analytical gel filtration, Superdex 75 10/300 GL, 10 mM Tris-HCl pH 8.5, 100 mM NaCl, 1 mM DTT; calibrated with BSA (66 kDa) and rabbit IgG (150 kDa)

Protein	binding result	stoichiometry N
MaoC Del63-71 (enzyme, MaoC-like hydratase, Phytophthora capsici strain SD33, full length with residues 63-71 deleted; Made from the wild-type plasmid (pET28-MaoC) with the MutanBEST kit; source: E. coli BL21 (DE3) pLysS, purified as described for the wild-type protein) MSVNVDKILNSPEATYTATYNQRDLLMYAVGIGESDLQFTYEFDEKFSAFPLYPVCLPFKGQETISAAPDGMPSFNPAMILHGEQSVEILRPLDPSGGTLTGKTKVISFYDKGKGTLMETQTQFEDGNGPVAKLISGSFIRGLTGYEGKGRKLPARVQIPKRQPDFNDEFKTSPHQAQVYRLSGDYNSLHIDPEIAKSVGFKQPILHGLCSMGVASRALFKQFCGGDVARFKSIRVRFSSPCFPGETIQTRMWQEGSGKVLFQAVVKERGAVIVDGGEFVYTQDASARL	binds	–
MaoC-like hydratase from Phytophthora capsici (enzyme, MaoC-like hydratase, Phytophthora capsici strain SD33, full length (Met-1 to Leu-298); Cloned BamHI/EcoRI into pET28a; no step that removes the tag is described, and the purified enzymes were detected with anti-His antibody on western blots; also called wild type MaoC; native MaoC; source: E. coli BL21 (DE3) pLysS, purified (Ni-NTA, Superdex-75 gel filtration)) MSVNVDKILNSPEATYTATYNQRDLLMYAVGIGESDLQFTYEFDEKFSAFPLYPVCLPFKGQSQDVVPFPPETISAAPDGMPSFNPAMILHGEQSVEILRPLDPSGGTLTGKTKVISFYDKGKGTLMETQTQFEDGNGPVAKLISGSFIRGLTGYEGKGRKLPARVQIPKRQPDFNDEFKTSPHQAQVYRLSGDYNSLHIDPEIAKSVGFKQPILHGLCSMGVASRALFKQFCGGDVARFKSIRVRFSSPCFPGETIQTRMWQEGSGKVLFQAVVKERGAVIVDGGEFVYTQDASARL	–	2
MaoC Del63-88 (enzyme, MaoC-like hydratase, Phytophthora capsici strain SD33, full length with residues 63-88 deleted; Made from the wild-type plasmid (pET28-MaoC) with the MutanBEST kit; source: E. coli BL21 (DE3) pLysS, purified as described for the wild-type protein) MSVNVDKILNSPEATYTATYNQRDLLMYAVGIGESDLQFTYEFDEKFSAFPLYPVCLPFKGQILHGEQSVEILRPLDPSGGTLTGKTKVISFYDKGKGTLMETQTQFEDGNGPVAKLISGSFIRGLTGYEGKGRKLPARVQIPKRQPDFNDEFKTSPHQAQVYRLSGDYNSLHIDPEIAKSVGFKQPILHGLCSMGVASRALFKQFCGGDVARFKSIRVRFSSPCFPGETIQTRMWQEGSGKVLFQAVVKERGAVIVDGGEFVYTQDASARL	binds	–
